We go through two substances from EP4556028A1.

The assay concerns the target recombinant SARS-CoV-2 spike RBD, WH-1 (Sino Biological 40592-V08B) (SARS-CoV-2 (wild type, WH-1)) (UniProt P0DTC2). The assay is described as follows: SPR (Biacore T200), minibinder immobilised, monomeric RBD as analyte. For orientation: In SPR one partner is held on a chip, and binding of the other changes the refractive index at the surface.

Take “recombinant minibinder AHB2 with N- and C-terminal Ser/Gly extensions and C-terminal Cys (designed binder)”: the Kd stood at 0.05 nM.
For “recombinant minibinder LCB1 with N- and C-terminal Ser/Gly extensions and C-terminal Cys (designed binder)”, the Kd worked out at 0.005 nM and the fold higher affinity than AHB2 came to 10 fold.

Usually Kd stands for the free concentration of one partner at which half of the binding sites on the other are occupied at equilibrium, for simple one-to-one binding.
